{"source": "the supplement of paper PMC9112550", "about": "“Optimization of the antimicrobial peptide Bac7 by deep mutational scanning” (BMC Biology, 2022);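 also: peptides expressed intracellularly from a pBAD plasmid library in pooled LB shake-flask culture, induced with 0.3% L-arabinose, DNA abundance read by NGS, three biological replicates, DESeq2 with apeglm shrinkage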", "data": [{"test_system": "Escherichia coli TOP10", "experiment": "shrunken log2 fold change of peptide-encoding DNA abundance (4.5 h post-induction vs induction); higher = less antimicrobial activity (less host growth inhibition)", "conditions": "time post-induction: 4.5 h; library: site-saturation at positions 5, 18, 19, 20", "values": [{"sequence": "RRIRIRPPRLPRPRPRPWLVPRP", "shrunken log2 fold change": -0.038}, {"sequence": "RRIRIRPPRLPRPRPRPWMRPRP", "shrunken log2 fold change": -0.37}, {"sequence": "RRIRIRPPRLPRPRPRPWQDPRP", "shrunken log2 fold change": -0.0109}, {"sequence": "RRIRIRPPRLPRPRPRPWQQPRP", "shrunken log2 fold change": 0.0529}, {"sequence": "RRIRIRPPRLPRPRPRPWRFPRP", "shrunken log2 fold change": -0.105}, {"sequence": "RRIRIRPPRLPRPRPRPWRPPRP", "shrunken log2 fold change": 0.145}, {"sequence": "RRIRIRPPRLPRPRPRPWSEPRP", "shrunken log2 fold change": -0.0763}, {"sequence": "RRIRIRPPRLPRPRPRPWTLPRP", "shrunken log2 fold change": -0.0808}, {"sequence": "RRIRIRPPRLPRPRPRPWYTPRP", "shrunken log2 fold change": -0.122}, {"sequence": "RRIRIRPPRLPRPRPRPYAKPRP", "shrunken log2 fold change": -0.207}, {"sequence": "RRIRIRPPRLPRPRPRPYAMPRP", "shrunken log2 fold change": -0.411}, {"sequence": "RRIRIRPPRLPRPRPRPYEKPRP", "shrunken log2 fold change": -0.352}, {"sequence": "RRIRIRPPRLPRPRPRPYFDPRP", "shrunken log2 fold change": -0.711}, {"sequence": "RRIRIRPPRLPRPRPRPYGCPRP", "shrunken log2 fold change": 0.0504}, {"sequence": "RRIRIRPPRLPRPRPRPYIGPRP", "shrunken log2 fold change": -0.775}, {"sequence": "RRIRIRPPRLPRPRPRPYINPRP", "shrunken log2 fold change": -1.08}, {"sequence": "RRIRIRPPRLPRPRPRPYKPPRP", "shrunken log2 fold change": -0.0367}, {"sequence": "RRIRIRPPRLPRPRPRPYMFPRP", "shrunken log2 fold change": -0.892}, {"sequence": "RRIRIRPPRLPRPRPRPYMVPRP", "shrunken log2 fold change": -0.377}, {"sequence": "RRIRIRPPRLPRPRPRPYNGPRP", "shrunken log2 fold change": -0.0564}, {"sequence": "RRIRIRPPRLPRPRPRPYNHPRP", "shrunken log2 fold change": -0.138}, {"sequence": "RRIRIRPPRLPRPRPRPYNTPRP", "shrunken log2 fold change": -0.725}, {"sequence": "RRIRIRPPRLPRPRPRPYPCPRP", "shrunken log2 fold change": -0.028}, {"sequence": "RRIRIRPPRLPRPRPRPYRCPRP", "shrunken log2 fold change": -0.0728}, {"sequence": "RRIRIRPPRLPRPRPRPYSDPRP", "shrunken log2 fold change": -0.186}, {"sequence": "RRIRIRPPRLPRPRPRPYTIPRP", "shrunken log2 fold change": -0.605}, {"sequence": "RRIRIRPPRLPRPRPRPYTKPRP", "shrunken log2 fold change": -0.203}, {"sequence": "RRIRIRPPRLPRPRPRPYTPPRP", "shrunken log2 fold change": -0.825}, {"sequence": "RRIRIRPPRLPRPRPRPYVDPRP", "shrunken log2 fold change": -0.0276}, {"sequence": "RRIRIRPPRLPRPRPRPYYNPRP", "shrunken log2 fold change": -0.679}, {"sequence": "RRIRKRPPRLPRPRPRPAAKPRP", "shrunken log2 fold change": 0.0103}, {"sequence": "RRIRKRPPRLPRPRPRPAAVPRP", "shrunken log2 fold change": 0.188}, {"sequence": "RRIRKRPPRLPRPRPRPACRPRP", "shrunken log2 fold change": 0.789}, {"sequence": "RRIRKRPPRLPRPRPRPAEKPRP", "shrunken log2 fold change": 0.477}, {"sequence": "RRIRKRPPRLPRPRPRPAFWPRP", "shrunken log2 fold change": 0.625}, {"sequence": "RRIRKRPPRLPRPRPRPAGFPRP", "shrunken log2 fold change": 0.0388}, {"sequence": "RRIRKRPPRLPRPRPRPAGVPRP", "shrunken log2 fold change": 0.685}, {"sequence": "RRIRKRPPRLPRPRPRPAHAPRP", "shrunken log2 fold change": 1.11}, {"sequence": "RRIRKRPPRLPRPRPRPAHEPRP", "shrunken log2 fold change": 0.816}, {"sequence": "RRIRKRPPRLPRPRPRPAHLPRP", "shrunken log2 fold change": -0.00667}, {"sequence": "RRIRKRPPRLPRPRPRPAHSPRP", "shrunken log2 fold change": 0.0695}, {"sequence": "RRIRKRPPRLPRPRPRPAICPRP", "shrunken log2 fold change": 0.0922}, {"sequence": "RRIRKRPPRLPRPRPRPAKEPRP", "shrunken log2 fold change": -0.0233}, {"sequence": "RRIRKRPPRLPRPRPRPALWPRP", "shrunken log2 fold change": 0.27}, {"sequence": "RRIRKRPPRLPRPRPRPAMHPRP", "shrunken log2 fold change": 0.402}, {"sequence": "RRIRKRPPRLPRPRPRPAMTPRP", "shrunken log2 fold change": 0.596}, {"sequence": "RRIRKRPPRLPRPRPRPAMVPRP", "shrunken log2 fold change": 0.87}, {"sequence": "RRIRKRPPRLPRPRPRPANRPRP", "shrunken log2 fold change": 0.167}, {"sequence": "RRIRKRPPRLPRPRPRPAPLPRP", "shrunken log2 fold change": 0.929}, {"sequence": "RRIRKRPPRLPRPRPRPAQRPRP", "shrunken log2 fold change": 0.946}, {"sequence": "RRIRKRPPRLPRPRPRPAWMPRP", "shrunken log2 fold change": 0.212}, {"sequence": "RRIRKRPPRLPRPRPRPAWQPRP", "shrunken log2 fold change": 0.714}, {"sequence": "RRIRKRPPRLPRPRPRPAYCPRP", "shrunken log2 fold change": 0.0801}, {"sequence": "RRIRKRPPRLPRPRPRPAYPPRP", "shrunken log2 fold change": -0.0401}, {"sequence": "RRIRKRPPRLPRPRPRPCCLPRP", "shrunken log2 fold change": -0.0964}, {"sequence": "RRIRKRPPRLPRPRPRPCDKPRP", "shrunken log2 fold change": 0.000564}, {"sequence": "RRIRKRPPRLPRPRPRPCDMPRP", "shrunken log2 fold change": -0.00141}, {"sequence": "RRIRKRPPRLPRPRPRPCEGPRP", "shrunken log2 fold change": 0.0796}, {"sequence": "RRIRKRPPRLPRPRPRPCERPRP", "shrunken log2 fold change": 0.019}, {"sequence": "RRIRKRPPRLPRPRPRPCFMPRP", "shrunken log2 fold change": -0.0787}, {"sequence": "RRIRKRPPRLPRPRPRPCHHPRP", "shrunken log2 fold change": -0.411}, {"sequence": "RRIRKRPPRLPRPRPRPCITPRP", "shrunken log2 fold change": -0.146}, {"sequence": "RRIRKRPPRLPRPRPRPCKKPRP", "shrunken log2 fold change": -0.0301}, {"sequence": "RRIRKRPPRLPRPRPRPCKYPRP", "shrunken log2 fold change": 0.0409}, {"sequence": "RRIRKRPPRLPRPRPRPCLGPRP", "shrunken log2 fold change": 0.0457}, {"sequence": "RRIRKRPPRLPRPRPRPCLYPRP", "shrunken log2 fold change": -0.0745}, {"sequence": "RRIRKRPPRLPRPRPRPCMFPRP", "shrunken log2 fold change": -0.167}, {"sequence": "RRIRKRPPRLPRPRPRPCNLPRP", "shrunken log2 fold change": 0.0104}, {"sequence": "RRIRKRPPRLPRPRPRPCPEPRP", "shrunken log2 fold change": 0.196}, {"sequence": "RRIRKRPPRLPRPRPRPCPYPRP", "shrunken log2 fold change": 0.151}, {"sequence": "RRIRKRPPRLPRPRPRPCQIPRP", "shrunken log2 fold change": 0.0947}, {"sequence": "RRIRKRPPRLPRPRPRPCQLPRP", "shrunken log2 fold change": -0.0631}, {"sequence": "RRIRKRPPRLPRPRPRPCQWPRP", "shrunken log2 fold change": -0.0983}, {"sequence": "RRIRKRPPRLPRPRPRPCTKPRP", "shrunken log2 fold change": 0.0518}, {"sequence": "RRIRKRPPRLPRPRPRPCTYPRP", "shrunken log2 fold change": 0.0972}, {"sequence": "RRIRKRPPRLPRPRPRPCVCPRP", "shrunken log2 fold change": 0.0462}, {"sequence": "RRIRKRPPRLPRPRPRPCVEPRP", "shrunken log2 fold change": 0.13}, {"sequence": "RRIRKRPPRLPRPRPRPCWMPRP", "shrunken log2 fold change": 0.446}, {"sequence": "RRIRKRPPRLPRPRPRPCWSPRP", "shrunken log2 fold change": 0.00256}, {"sequence": "RRIRKRPPRLPRPRPRPCYWPRP", "shrunken log2 fold change": 0.0448}, {"sequence": "RRIRKRPPRLPRPRPRPDAEPRP", "shrunken log2 fold change": 1.59}, {"sequence": "RRIRKRPPRLPRPRPRPDCFPRP", "shrunken log2 fold change": 0.315}, {"sequence": "RRIRKRPPRLPRPRPRPDCVPRP", "shrunken log2 fold change": 0.342}, {"sequence": "RRIRKRPPRLPRPRPRPDDAPRP", "shrunken log2 fold change": 1.47}, {"sequence": "RRIRKRPPRLPRPRPRPDEKPRP", "shrunken log2 fold change": 0.411}, {"sequence": "RRIRKRPPRLPRPRPRPDEPPRP", "shrunken log2 fold change": 2.05}, {"sequence": "RRIRKRPPRLPRPRPRPDFVPRP", "shrunken log2 fold change": 0.0472}, {"sequence": "RRIRKRPPRLPRPRPRPDGEPRP", "shrunken log2 fold change": 1.16}, {"sequence": "RRIRKRPPRLPRPRPRPDGLPRP", "shrunken log2 fold change": -0.162}, {"sequence": "RRIRKRPPRLPRPRPRPDIPPRP", "shrunken log2 fold change": -0.109}, {"sequence": "RRIRKRPPRLPRPRPRPDMNPRP", "shrunken log2 fold change": 0.375}, {"sequence": "RRIRKRPPRLPRPRPRPDNEPRP", "shrunken log2 fold change": 0.665}, {"sequence": "RRIRKRPPRLPRPRPRPDPQPRP", "shrunken log2 fold change": 0.729}, {"sequence": "RRIRKRPPRLPRPRPRPDQMPRP", "shrunken log2 fold change": -0.0646}, {"sequence": "RRIRKRPPRLPRPRPRPDQNPRP", "shrunken log2 fold change": 0.678}, {"sequence": "RRIRKRPPRLPRPRPRPDQWPRP", "shrunken log2 fold change": 0.376}, {"sequence": "RRIRKRPPRLPRPRPRPDTQPRP", "shrunken log2 fold change": 0.202}, {"sequence": "RRIRKRPPRLPRPRPRPDVCPRP", "shrunken log2 fold change": -0.0122}, {"sequence": "RRIRKRPPRLPRPRPRPDVLPRP", "shrunken log2 fold change": 0.0156}, {"sequence": "RRIRKRPPRLPRPRPRPDWQPRP", "shrunken log2 fold change": -0.0216}, {"sequence": "RRIRKRPPRLPRPRPRPDWWPRP", "shrunken log2 fold change": -0.0103}, {"sequence": "RRIRKRPPRLPRPRPRPDYEPRP", "shrunken log2 fold change": -0.164}, {"sequence": "RRIRKRPPRLPRPRPRPDYQPRP", "shrunken log2 fold change": -0.0353}, {"sequence": "RRIRKRPPRLPRPRPRPDYTPRP", "shrunken log2 fold change": -0.193}, {"sequence": "RRIRKRPPRLPRPRPRPEDEPRP", "shrunken log2 fold change": 2.15}, {"sequence": "RRIRKRPPRLPRPRPRPEDLPRP", "shrunken log2 fold change": 1.8}, {"sequence": "RRIRKRPPRLPRPRPRPEDSPRP", "shrunken log2 fold change": 1.28}, {"sequence": "RRIRKRPPRLPRPRPRPEEAPRP", "shrunken log2 fold change": 3.85}, {"sequence": "RRIRKRPPRLPRPRPRPEFFPRP", "shrunken log2 fold change": 0.7}]}]}
